Test results: publication PMC9482650, “Quantitative fragmentomics allow affinity mapping of interactomes” (Nature Communications, 2022)

T1: APBA1_2, Q02410
T1 sequence (Q02410 742-832, limits assumed, looked up): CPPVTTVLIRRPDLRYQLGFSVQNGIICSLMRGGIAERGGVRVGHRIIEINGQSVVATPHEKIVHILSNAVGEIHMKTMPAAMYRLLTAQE

T2: APBA3_1, O96018
T2 sequence (O96018 389-490, limits assumed, looked up): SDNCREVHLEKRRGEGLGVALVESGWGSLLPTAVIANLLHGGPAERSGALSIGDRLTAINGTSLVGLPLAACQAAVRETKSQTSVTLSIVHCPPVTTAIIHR

T3: DFNB31_1, Q9P202
T3 sequence (Q9P202 135-233, limits assumed, looked up): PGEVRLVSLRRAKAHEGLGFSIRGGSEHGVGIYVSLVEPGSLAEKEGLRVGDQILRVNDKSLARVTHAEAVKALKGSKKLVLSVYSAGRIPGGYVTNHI

T4: DFNB31_3, Q9P202
T4 sequence (Q9P202 811-907, limits assumed, looked up): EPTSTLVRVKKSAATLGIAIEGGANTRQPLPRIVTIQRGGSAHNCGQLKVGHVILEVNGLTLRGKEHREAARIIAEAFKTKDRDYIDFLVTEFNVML

T5: GRIP1_3, Q9Y3R0
T5 sequence (Q9Y3R0 247-346, limits assumed, looked up): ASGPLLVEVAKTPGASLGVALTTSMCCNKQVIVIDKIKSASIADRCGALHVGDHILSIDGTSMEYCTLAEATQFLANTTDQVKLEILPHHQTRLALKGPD

T6: GRIP1_7, Q9Y3R0
T6 sequence (Q9Y3R0 999-1096, limits assumed, looked up): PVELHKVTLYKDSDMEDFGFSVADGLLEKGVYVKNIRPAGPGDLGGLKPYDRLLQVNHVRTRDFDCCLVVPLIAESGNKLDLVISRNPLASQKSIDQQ

T7: MPDZ_12, O75970
T7 sequence (O75970 1857-1958, limits assumed, looked up): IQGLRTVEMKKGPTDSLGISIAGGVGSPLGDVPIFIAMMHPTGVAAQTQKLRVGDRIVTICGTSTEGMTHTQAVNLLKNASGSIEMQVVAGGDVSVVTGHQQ

T8: MPP6, Q9NZW5
T8 sequence (Q9NZW5 125-219, limits assumed, looked up): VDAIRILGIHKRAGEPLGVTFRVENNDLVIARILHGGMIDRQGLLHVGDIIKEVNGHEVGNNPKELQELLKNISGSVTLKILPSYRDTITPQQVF

T9: PDZD7_3, Q9H5P4
T9 sequence (Q9H5P4 857-944, limits assumed, looked up): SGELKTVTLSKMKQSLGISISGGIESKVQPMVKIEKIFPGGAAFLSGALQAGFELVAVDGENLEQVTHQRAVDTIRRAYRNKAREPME

T10: PTPN13_1, Q12923
T10 sequence (Q12923 1088-1188, limits assumed, looked up): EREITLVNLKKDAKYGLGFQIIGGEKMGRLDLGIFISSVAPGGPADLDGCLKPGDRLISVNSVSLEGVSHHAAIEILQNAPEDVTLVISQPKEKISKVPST

T11: SHANK1, Q9Y566
T11 sequence (Q9Y566 658-767, limits assumed, looked up): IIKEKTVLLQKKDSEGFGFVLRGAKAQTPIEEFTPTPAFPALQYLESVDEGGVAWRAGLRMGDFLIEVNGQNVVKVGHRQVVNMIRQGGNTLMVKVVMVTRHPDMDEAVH

T12: SYNJ2BP, P57105
T12 sequence (P57105 8-110, limits assumed, looked up): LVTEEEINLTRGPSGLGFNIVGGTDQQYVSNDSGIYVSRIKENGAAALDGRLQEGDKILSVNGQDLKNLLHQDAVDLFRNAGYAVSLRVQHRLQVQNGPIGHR


These binders were tested against AHNAK1, Q09666 (assay: holdup assay). Settings: plain residues with an end cap or a label only (N-terminal biotin on a linker: ado-ado).
Sequence of AHNAK1, Q09666 (Q09666 4-100): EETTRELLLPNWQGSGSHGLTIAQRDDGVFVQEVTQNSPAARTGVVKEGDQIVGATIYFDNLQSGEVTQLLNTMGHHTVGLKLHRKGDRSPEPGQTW
Set-up: key: below the threshold = too weak to quantify, mostly under pKd 3.1 to 4

Row | Binder | pKd
1 | QKNKDREYYV [NRXN3, Q9HDB5] | below the threshold
2 | THREVKFTSL [CD46, P15529] | below the threshold

These binders were tested against T1, APBA1_2, Q02410 (assay: holdup assay). Settings: plain residues with an end cap or a label only (N-terminal biotin on a linker: ado-ado).
Set-up: key: below the threshold = too weak to quantify, mostly under pKd 3.1 to 4

Row | Binder | pKd
3 | QKNKDREYYV [NRXN3, Q9HDB5] | 3.99
4 | THREVKFTSL [CD46, P15529] | 3.64

What follows are binders tested against T2, APBA3_1, O96018 (assay: holdup assay). Settings: plain residues with an end cap or a label only (N-terminal biotin on a linker: ado-ado).
Set-up: key: below the threshold = too weak to quantify, mostly under pKd 3.1 to 4

Row | Binder | pKd
5 | QKNKDREYYV [NRXN3, Q9HDB5] | below the threshold
6 | THREVKFTSL [CD46, P15529] | below the threshold

What follows are binders tested against T3, DFNB31_1, Q9P202 (assay: holdup assay). Settings: plain residues with an end cap or a label only (N-terminal biotin on a linker: ado-ado).
Set-up: key: below the threshold = too weak to quantify, mostly under pKd 3.1 to 4

Row | Binder | pKd
7 | QKNKDREYYV [NRXN3, Q9HDB5] | below the threshold
8 | THREVKFTSL [CD46, P15529] | 3.82

What follows are binders tested against T4, DFNB31_3, Q9P202 (assay: holdup assay). Settings: plain residues with an end cap or a label only (N-terminal biotin on a linker: ado-ado).
Set-up: key: below the threshold = too weak to quantify, mostly under pKd 3.1 to 4

Row | Binder | pKd
9 | QKNKDREYYV [NRXN3, Q9HDB5] | 3.97
10 | THREVKFTSL [CD46, P15529] | 3.85

These binders were tested against DLG1_1, Q12959 (assay: holdup assay). Settings: plain residues with an end cap or a label only (N-terminal biotin on a linker: ado-ado).
Set-up: key: below the threshold = too weak to quantify, mostly under pKd 3.1 to 4

Row | Binder | pKd
11 | QKNKDREYYV [NRXN3, Q9HDB5] | below the threshold
12 | THREVKFTSL [CD46, P15529] | below the threshold

Each binder was assayed against DLG4_2, P78352 (assay: holdup assay). Settings: plain residues with an end cap or a label only (N-terminal biotin on a linker: ado-ado).
Sequence of DLG4_2, P78352 (P78352 155-259): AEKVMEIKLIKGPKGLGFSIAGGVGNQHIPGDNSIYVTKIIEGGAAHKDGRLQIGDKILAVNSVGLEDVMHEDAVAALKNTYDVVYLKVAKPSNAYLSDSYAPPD
Set-up: key: below the threshold = too weak to quantify, mostly under pKd 3.1 to 4

Row | Binder | pKd
13 | QKNKDREYYV [NRXN3, Q9HDB5] | 3.67
14 | THREVKFTSL [CD46, P15529] | 3.7

Each binder was assayed against DLG4_3, P78352 (assay: holdup assay). Settings: plain residues with an end cap or a label only (N-terminal biotin on a linker: ado-ado).
Sequence of DLG4_3, P78352 (P78352 306-403): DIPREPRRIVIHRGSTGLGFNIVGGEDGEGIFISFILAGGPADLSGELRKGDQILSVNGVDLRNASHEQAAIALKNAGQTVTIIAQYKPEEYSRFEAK
Set-up: key: below the threshold = too weak to quantify, mostly under pKd 3.1 to 4

Row | Binder | pKd
15 | QKNKDREYYV [NRXN3, Q9HDB5] | below the threshold
16 | THREVKFTSL [CD46, P15529] | 4.3

What follows are binders tested against DLG5_1, Q8TDM6 (assay: holdup assay). Settings: plain residues with an end cap or a label only (N-terminal biotin on a linker: ado-ado).
Sequence of DLG5_1, Q8TDM6 (Q8TDM6 617-713): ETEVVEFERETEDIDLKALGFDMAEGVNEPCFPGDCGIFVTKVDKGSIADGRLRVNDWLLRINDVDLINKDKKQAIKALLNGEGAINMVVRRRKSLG
Set-up: key: below the threshold = too weak to quantify, mostly under pKd 3.1 to 4

Row | Binder | pKd
17 | QKNKDREYYV [NRXN3, Q9HDB5] | below the threshold
18 | THREVKFTSL [CD46, P15529] | below the threshold

What follows are binders tested against FRMPD2_3, Q68DX3 (assay: holdup assay). Settings: plain residues with an end cap or a label only (N-terminal biotin on a linker: ado-ado).
Sequence of FRMPD2_3, Q68DX3 (Q68DX3 1073-1166): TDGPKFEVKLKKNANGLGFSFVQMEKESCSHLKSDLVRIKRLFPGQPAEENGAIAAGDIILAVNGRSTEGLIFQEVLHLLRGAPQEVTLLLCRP
Set-up: key: below the threshold = too weak to quantify, mostly under pKd 3.1 to 4

Row | Binder | pKd
19 | QKNKDREYYV [NRXN3, Q9HDB5] | 4.38
20 | THREVKFTSL [CD46, P15529] | below the threshold

What follows are binders tested against GRID2IP_1, A4D2P6 (assay: holdup assay). Settings: plain residues with an end cap or a label only (N-terminal biotin on a linker: ado-ado).
Sequence of GRID2IP_1, A4D2P6 (A4D2P6 1-87): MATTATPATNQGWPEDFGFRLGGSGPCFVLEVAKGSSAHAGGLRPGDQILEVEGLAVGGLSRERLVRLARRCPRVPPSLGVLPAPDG
Set-up: key: below the threshold = too weak to quantify, mostly under pKd 3.1 to 4

Row | Binder | pKd
21 | QKNKDREYYV [NRXN3, Q9HDB5] | below the threshold
22 | THREVKFTSL [CD46, P15529] | below the threshold

The binders below were run against GRID2IP_2, A4D2P6 (assay: holdup assay). Settings: plain residues with an end cap or a label only (N-terminal biotin on a linker: ado-ado).
Sequence of GRID2IP_2, A4D2P6 (A4D2P6 272-370): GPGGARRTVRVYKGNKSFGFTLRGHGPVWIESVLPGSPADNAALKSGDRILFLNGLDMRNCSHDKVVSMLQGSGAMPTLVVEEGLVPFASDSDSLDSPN
Set-up: key: below the threshold = too weak to quantify, mostly under pKd 3.1 to 4

Row | Binder | pKd
23 | QKNKDREYYV [NRXN3, Q9HDB5] | 3.52
24 | THREVKFTSL [CD46, P15529] | 4.95

Each binder was assayed against T5, GRIP1_3, Q9Y3R0 (assay: holdup assay). Settings: plain residues with an end cap or a label only (N-terminal biotin on a linker: ado-ado).
Set-up: key: below the threshold = too weak to quantify, mostly under pKd 3.1 to 4

Row | Binder | pKd
25 | QKNKDREYYV [NRXN3, Q9HDB5] | below the threshold
26 | THREVKFTSL [CD46, P15529] | below the threshold

These binders were tested against T6, GRIP1_7, Q9Y3R0 (assay: holdup assay). Settings: plain residues with an end cap or a label only (N-terminal biotin on a linker: ado-ado).
Set-up: key: below the threshold = too weak to quantify, mostly under pKd 3.1 to 4

Row | Binder | pKd
27 | QKNKDREYYV [NRXN3, Q9HDB5] | 4.62
28 | THREVKFTSL [CD46, P15529] | below the threshold

Each binder was assayed against Inadl_8, Q8NI35 (assay: holdup assay). Settings: plain residues with an end cap or a label only (N-terminal biotin on a linker: ado-ado).
Sequence of Inadl_8, Q8NI35 (Q8NI35 1425-1530): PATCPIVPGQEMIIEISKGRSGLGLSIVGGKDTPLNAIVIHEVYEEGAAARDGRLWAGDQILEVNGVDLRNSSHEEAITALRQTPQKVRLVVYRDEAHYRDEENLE
Set-up: key: below the threshold = too weak to quantify, mostly under pKd 3.1 to 4

Row | Binder | pKd
29 | QKNKDREYYV [NRXN3, Q9HDB5] | 3.48
30 | THREVKFTSL [CD46, P15529] | 3.53

The binders below were run against MAGI1_1, Q96QZ7 (assay: holdup assay). Settings: plain residues with an end cap or a label only (N-terminal biotin on a linker: ado-ado).
Sequence of MAGI1_1, Q96QZ7 (Q96QZ7 1-106): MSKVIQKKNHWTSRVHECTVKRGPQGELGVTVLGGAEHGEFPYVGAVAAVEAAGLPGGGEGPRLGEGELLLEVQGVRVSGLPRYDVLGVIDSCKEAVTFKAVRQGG
Set-up: key: below the threshold = too weak to quantify, mostly under pKd 3.1 to 4

Row | Binder | pKd
31 | QKNKDREYYV [NRXN3, Q9HDB5] | below the threshold
32 | THREVKFTSL [CD46, P15529] | below the threshold

The binders below were run against MAGI1_2, Q96QZ7 (assay: holdup assay). Settings: plain residues with an end cap or a label only (N-terminal biotin on a linker: ado-ado).
Sequence of MAGI1_2, Q96QZ7 (Q96QZ7 456-580): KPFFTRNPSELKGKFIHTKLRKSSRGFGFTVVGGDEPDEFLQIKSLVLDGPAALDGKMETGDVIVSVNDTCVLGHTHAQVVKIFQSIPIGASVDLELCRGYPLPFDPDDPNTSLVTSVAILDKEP
Set-up: key: below the threshold = too weak to quantify, mostly under pKd 3.1 to 4

Row | Binder | pKd
33 | QKNKDREYYV [NRXN3, Q9HDB5] | below the threshold
34 | THREVKFTSL [CD46, P15529] | 3.81

Each binder was assayed against T7, MPDZ_12, O75970 (assay: holdup assay). Settings: plain residues with an end cap or a label only (N-terminal biotin on a linker: ado-ado).
Set-up: key: below the threshold = too weak to quantify, mostly under pKd 3.1 to 4

Row | Binder | pKd
35 | QKNKDREYYV [NRXN3, Q9HDB5] | below the threshold
36 | THREVKFTSL [CD46, P15529] | below the threshold

What follows are binders tested against T8, MPP6, Q9NZW5 (assay: holdup assay). Settings: plain residues with an end cap or a label only (N-terminal biotin on a linker: ado-ado).
Set-up: key: below the threshold = too weak to quantify, mostly under pKd 3.1 to 4

Row | Binder | pKd
37 | QKNKDREYYV [NRXN3, Q9HDB5] | 4.25
38 | THREVKFTSL [CD46, P15529] | below the threshold

The binders below were run against NHERF2_2, Q15599 (assay: holdup assay). Settings: plain residues with an end cap or a label only (N-terminal biotin on a linker: ado-ado).
Sequence of NHERF2_2, Q15599 (Q15599 142-238): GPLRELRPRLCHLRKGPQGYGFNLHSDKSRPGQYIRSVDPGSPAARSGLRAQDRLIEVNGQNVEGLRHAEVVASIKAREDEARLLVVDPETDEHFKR
Set-up: key: below the threshold = too weak to quantify, mostly under pKd 3.1 to 4

Row | Binder | pKd
39 | QKNKDREYYV [NRXN3, Q9HDB5] | below the threshold
40 | THREVKFTSL [CD46, P15529] | 4.36

The binders below were run against T9, PDZD7_3, Q9H5P4 (assay: holdup assay). Settings: plain residues with an end cap or a label only (N-terminal biotin on a linker: ado-ado).
Set-up: key: below the threshold = too weak to quantify, mostly under pKd 3.1 to 4

Row | Binder | pKd
41 | QKNKDREYYV [NRXN3, Q9HDB5] | below the threshold
42 | THREVKFTSL [CD46, P15529] | 4.75

What follows are binders tested against PDZRN4_1, Q6ZMN7 (assay: holdup assay). Settings: plain residues with an end cap or a label only (N-terminal biotin on a linker: ado-ado).
Sequence of PDZRN4_1, Q6ZMN7 (Q6ZMN7 213-318): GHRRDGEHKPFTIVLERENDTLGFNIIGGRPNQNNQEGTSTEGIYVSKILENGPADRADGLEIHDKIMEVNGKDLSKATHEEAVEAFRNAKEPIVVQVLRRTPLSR
Set-up: key: below the threshold = too weak to quantify, mostly under pKd 3.1 to 4

Row | Binder | pKd
43 | QKNKDREYYV [NRXN3, Q9HDB5] | below the threshold
44 | THREVKFTSL [CD46, P15529] | 4.57

These binders were tested against T10, PTPN13_1, Q12923 (assay: holdup assay). Settings: plain residues with an end cap or a label only (N-terminal biotin on a linker: ado-ado).
Set-up: key: below the threshold = too weak to quantify, mostly under pKd 3.1 to 4

Row | Binder | pKd
45 | QKNKDREYYV [NRXN3, Q9HDB5] | below the threshold
46 | THREVKFTSL [CD46, P15529] | below the threshold

The binders below were run against T11, SHANK1, Q9Y566 (assay: holdup assay). Settings: plain residues with an end cap or a label only (N-terminal biotin on a linker: ado-ado).
Set-up: key: below the threshold = too weak to quantify, mostly under pKd 3.1 to 4

Row | Binder | pKd
47 | QKNKDREYYV [NRXN3, Q9HDB5] | below the threshold
48 | THREVKFTSL [CD46, P15529] | 4.39

The binders below were run against T12, SYNJ2BP, P57105 (assay: holdup assay). Settings: plain residues with an end cap or a label only (N-terminal biotin on a linker: ado-ado).
Set-up: key: below the threshold = too weak to quantify, mostly under pKd 3.1 to 4

Row | Binder | pKd
49 | QKNKDREYYV [NRXN3, Q9HDB5] | below the threshold
50 | THREVKFTSL [CD46, P15529] | 4.59

What follows are binders tested against TJP1_3, Q07157 (assay: holdup assay). Settings: plain residues with an end cap or a label only (N-terminal biotin on a linker: ado-ado).
Sequence of TJP1_3, Q07157 (Q07157 416-512): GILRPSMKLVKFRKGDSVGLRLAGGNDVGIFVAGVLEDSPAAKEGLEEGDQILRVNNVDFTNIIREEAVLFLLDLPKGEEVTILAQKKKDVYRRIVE
Set-up: key: below the threshold = too weak to quantify, mostly under pKd 3.1 to 4

Row | Binder | pKd
51 | QKNKDREYYV [NRXN3, Q9HDB5] | below the threshold
52 | THREVKFTSL [CD46, P15529] | below the threshold
